These results are taken from PMC11024197 (Nature Communications, 2024).

Broadly, the Kd is the free concentration of one partner at which half of the binding sites on the other are occupied at equilibrium, for simple one-to-one binding. A word on the stoichiometry N: it is a count of units in the complex or per binding partner.

Positions count from the first letter of the chain named. Names may count otherwise. “And” between values parts separate entries of the source, which are not always exact repeats. Equal values may be shown once.

The labels stand for the following.
T1: PEX13 SH3-CTR (residues 261-403) (human, UniProt Q92968 261-403)
T1 construct: 15N-labelled in the NMR titrations, unlabelled as ITC titrant; source: E. coli BL21 (DE3), purified (Ni-NTA, SUMO cleavage, reverse Ni-NTA, SEC); not shown: His6-SUMO, N-terminal, cleaved
T1 sequence (looked up): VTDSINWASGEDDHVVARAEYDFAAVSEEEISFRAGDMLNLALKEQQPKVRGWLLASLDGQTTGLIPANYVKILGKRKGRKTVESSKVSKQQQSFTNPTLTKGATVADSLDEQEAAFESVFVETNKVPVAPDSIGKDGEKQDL

B1: PEX5 W5 peptide (peptide)
peptide: AQAEQWAAEFIQQQG
notes: 15-mer with the W5 WxxxF motif of human PEX5; source: synthetic peptide, bought: PSL (Peptide Specialty Laboratories)
B2: PEX13 FxxxF peptide (residues 350-403) (domain or fragment, human, UniProt Q92968 350-403, looked up)
chain: KQQQSFTNPTLTKGATVADSLDEQEAAFESVFVETNKVPVAPDSIGKDGEKQDL
notes: also called Pex13_FxF; source: E. coli BL21 (DE3), purified (Ni-NTA, SUMO cleavage, reverse Ni-NTA, SEC)
B3: PEX5 W7 peptide (peptide)
peptide: AEAHPWLSDYDDLTS
notes: 15-mer with the W7 (di)aromatic motif of human PEX5; source: synthetic peptide, bought: PSL (Peptide Specialty Laboratories GmbH)
B4: PEX5 W6 peptide (peptide)
peptide: GTSDAWVDQFTRPVN
notes: 15-mer with the W6 WxxxF motif of human PEX5; source: synthetic peptide, bought: PSL (Peptide Specialty Laboratories)
B5: PEX5 W7 peptide (peptide)
peptide: AEAHPWLSDYDDLTS
notes: 15-mer with the W7 WxxxY motif of human PEX5; source: synthetic peptide, bought: PSL (Peptide Specialty Laboratories)
B6: PEX5 W5 peptide (peptide)
peptide: AQAEQWAAEFIQQQG
notes: 15-mer with the W5 (di)aromatic motif of human PEX5; source: synthetic peptide, bought: PSL (Peptide Specialty Laboratories GmbH)
B7: PEX13-CTR double cysteine mutant I333C/A376C (IA/CC) (domain or fragment, human, UniProt Q92968 261-403, looked up)
chain: T1 sequence (looked up) with I73C, A116C
notes: the two states are told apart by the assay; 15N-labelled; also called PEX13 CTR IA/CC; PEX13-CTR IA/CC; source: E. coli BL21 (DE3), purified (Ni-NTA, SUMO cleavage, reverse Ni-NTA, SEC); not shown: His6-SUMO, N-terminal, cleaved
B8: PEX5 W1 peptide (peptide)
peptide: ALSENWAQEFLAAGD
notes: 15-mer with the W1 (di)aromatic motif of human PEX5; source: synthetic peptide, bought: PSL (Peptide Specialty Laboratories GmbH)
B9: PEX5 W6 peptide (peptide)
peptide: GTSDAWVDQFTRPVN
notes: 15-mer with the W6 (di)aromatic motif of human PEX5; source: synthetic peptide, bought: PSL (Peptide Specialty Laboratories GmbH)
B10: PEX13 SH3 domain (residues 261-346) (domain or fragment, human, UniProt Q92968 261-346, looked up)
chain: VTDSINWASGEDDHVVARAEYDFAAVSEEEISFRAGDMLNLALKEQQPKVRGWLLASLDGQTTGLIPANYVKILGKRKGRKTVESS
notes: 15N-labelled in the NMR titrations, unlabelled in ITC; source: E. coli BL21 (DE3), purified (Ni-NTA, SUMO cleavage, reverse Ni-NTA, SEC); not shown: His6-SUMO, N-terminal, cleaved
B11: PEX13 SH3 domain (domain or fragment, human)
chain: B10 chain
notes: the SH3-CTR construct begins at 261 and the crystallised chimeras end the SH3 part at 346; source: E. coli BL21 (DE3), purified (Ni-NTA, SUMO cleavage, reverse Ni-NTA, SEC)
B12: PEX5 W1 peptide (peptide)
peptide: ALSENWAQEFLAAGD
notes: 15-mer with the W1 WxxxF motif of human PEX5; source: synthetic peptide, bought: PSL (Peptide Specialty Laboratories)
B13: PEX13 C-terminal peptide (351-403) with WT FxxxF motif (peptide)
chain: YGGQQQSFTNPTLTKGATVADSLDEQEAAFESVFVETNKVPVAPDSIGKDGEKQDL
notes: three residues added before residue 351; main text and some legends say 350-403; also called PEX13 FxxxF; FxxxF peptide (350-403); source: E. coli BL21 (DE3), purified (Ni-NTA, SUMO cleavage, reverse Ni-NTA, SEC); not shown: His6-SUMO, N-terminal, cleaved
B14: PEX13 C-terminal peptide (351-403) with the FxxxF motif replaced by the PEX5 W4 motif (peptide)
chain: B13 chain with F30W, E31Y, S32D, V33E, F34Y
notes: three residues added before residue 351; also called FF/W4; source: E. coli BL21 (DE3), purified (Ni-NTA, SUMO cleavage, reverse Ni-NTA, SEC); not shown: His6-SUMO, N-terminal, cleaved
B15: PEX14 NTD (1-104) (domain or fragment, human, UniProt O75381 1-104, looked up)
chain: MASSEQAEQPSQPSSTPGSENVLPREPLIATAVKFLQNSRVRQSPLATRRAFLKKKGLTDEEIDMAFQQSGTAADEPSSLGPATQVVPVQPPHLISQPYSPAGS
notes: human PEX14, N-terminal domain, residues 1-104; also called PEX14 1-104; source: E. coli BL21 (DE3), purified (Ni-NTA, SUMO cleavage, reverse Ni-NTA, SEC); not shown: His6-SUMO, N-terminal, cleaved
B16: PEX14 NTD (1-104) (domain or fragment, human, UniProt O75381 1-104, looked up)
chain: B15 chain
notes: human PEX14 N-terminal domain, residues 1-104; also called PEX14 (1-104); source: E. coli BL21 (DE3), purified (Ni-NTA, SUMO cleavage, reverse Ni-NTA, SEC)

Holding throughout (details): both partners purified
Assay [1] concerns the target T2, PEX14 NTD (1-104) (human, UniProt O75381 1-104).
T2 construct: human PEX14 (UniProtKB O75381), N-terminal domain, residues 1-104; also called PEX14 (1-104); source: E. coli BL21 (DE3), purified (Ni-NTA, SUMO cleavage, reverse Ni-NTA, SEC)
Kind of assay: ITC; PEX14 (1-104) (20-60 uM, concentration corrected with the fit) in the cell, peptide or fragment in the syringe; 25 °C, 20 mM Tris pH 7.5, 50 mM NaCl; one-site binding model; single runs of triplicates and their averages. A general note: In ITC the heat of successive injections is recorded.

The assay “PEX13 SH3 domain” deals with B11. Kind of assay: ITC; PEX13 SH3 (35-48 uM) in the cell, peptide or fragment in the syringe; 25 °C, 20 mM Tris pH 7.5, 50 mM NaCl; one-site binding model; single runs of triplicates and their averages.
The target in assay [2] is B15. Kind of assay: ITC; PEX14 NTD (1-104) (20-60 µM) in the cell, titrated with PEX5 W peptides or W0 (0.4-0.6 mM), PEX13 FxxxF (0.46 mM) or PEX13 SH3-CTR (1 mM); 25 °C; 20 mM Tris pH 7.5, 50 mM NaCl; one-site binding model; PEX14 concentration corrected with the fit; triplicates.
Assay [3] addresses T1, PEX13 SH3-CTR (residues 261-403). Kind of assay: NMR titration; 15N-labelled PEX13 construct (100 µM reference) with unlabelled ligand added; 1H,15N correlation spectra; 298 K; 20 mM Tris pH 7.5, 50 mM NaCl.
The target in assay [4] is B10. The assay is described as above.
The target of assay [5] is T3, PEX5 W4 peptide (human).
T3 construct: source: synthetic peptide, bought: PSL (Peptide Specialty Laboratories GmbH)
Kind of assay: NMR titration; reduced (2 mM TCEP) 15N PEX13-CTR IA/CC with 4x and 8x PEX5 W4; 1H,15N correlation spectra.

In assay [6] the target is T4, PEX5 W3 peptide (human).
T4 construct: 15-mer with the W3 (di)aromatic motif of human PEX5; source: synthetic peptide, bought: PSL (Peptide Specialty Laboratories GmbH)
Kind of assay: ITC; PEX13 SH3 (35-48 µM) in the cell, titrated with peptide; 25 °C; 20 mM Tris pH 7.5, 50 mM NaCl; one-site binding model; triplicates.

For assay [7], the target named is T5, PEX5 W2 peptide (human).
T5 construct: 15-mer with the W2 WxxxF motif of human PEX5; source: synthetic peptide, bought: PSL (Peptide Specialty Laboratories)
Kind of assay: ITC; PEX13 SH3 (35-48 uM) in the cell, peptide or fragment in the syringe; 25 °C, 20 mM Tris pH 7.5, 50 mM NaCl; one-site binding model; single runs of triplicates and their averages.

Assay [8] addresses T6, PEX5 W4 peptide (human).
T6 construct: 15-mer with the W4 WxxxY motif of human PEX5 (R183, Y185, Y188 are named in the text); source: synthetic peptide, bought: PSL (Peptide Specialty Laboratories)
The description is as above.

In assay [9] the target is T7, PEX5 W3 peptide (human).
T7 construct: 15-mer with the W3 WxxxY motif of human PEX5; source: synthetic peptide, bought: PSL (Peptide Specialty Laboratories)
The description is as above.

Assay [10] has as its target B10. Kind of assay: ITC; PEX13 SH3 (35-48 µM) in the cell, titrated with peptide; 25 °C; 20 mM Tris pH 7.5, 50 mM NaCl; one-site binding model; triplicates.
The target of assay [11] is T4, PEX5 W3 peptide. Kind of assay: ITC; PEX14 NTD (1-104) (20-60 µM) in the cell, titrated with PEX5 W peptides or W0 (0.4-0.6 mM), PEX13 FxxxF (0.46 mM) or PEX13 SH3-CTR (1 mM); 25 °C; 20 mM Tris pH 7.5, 50 mM NaCl; one-site binding model; PEX14 concentration corrected with the fit; triplicates.
Assay [12] concerns the target T3, PEX5 W4 peptide. The assay is described as above.
Assay [13] addresses T8, PEX5 W2 peptide (human).
T8 construct: 15-mer with the W2 (di)aromatic motif of human PEX5; source: synthetic peptide, bought: PSL (Peptide Specialty Laboratories GmbH)
The assay is described as above.

Assay [14] deals with T9, PEX5 W4 peptide (human).
T9 construct: 15-mer with the W4 WxxxY motif of human PEX5 (R183, Y185, Y188 printed); also called PEX5 W4 motif; source: synthetic peptide, bought: PSL (Peptide Specialty Laboratories)
Kind of assay: ITC; PEX14 (1-104) at 20-60 µM titrated with PEX5 W peptides or W0 (0.4-0.6 mM), PEX13 FxxxF (0.46 mM) or PEX13 SH3-CTR (1 mM); 25 °C; 20 mM Tris pH 7.5, 50 mM NaCl; one-site model; PEX14 concentration corrected with the fit; triplicates.

In the case of B1, in the assay with PEX14 NTD (1-104) [1], the Kd was 0.0172 µM and 0.0188 µM and 0.0255 µM and 0.0205 µM; the “stoichiometry N” value came out at 1 sites.

For the molecule B2, in the assay with PEX13 SH3 domain, the equilibrium dissociation constant (Kd) is 21.4 µM and 32.4 µM and 27 µM; the “stoichiometry N” value stood at 1 sites. For the same molecule, in the assay with PEX14 NTD (1-104) [1], the Kd was 3.09 µM and 2.23 µM and 3.08 µM; the “stoichiometry N” value is 1 sites.

In the case of B3, the “stoichiometry N” value with PEX14 NTD (1-104) [2] came out at 1.

Regarding TRVPPPILPRPSQ (peptide, UniProt Q92968 49-61, looked up) [PEX13 PxxP peptide (49-61)], the binding result in assay [3] and in assay [4] was “binds” each time.

Take B4: the “stoichiometry N” value in the assay with PEX14 NTD (1-104) [1] was 1 sites.

Take B5: the “stoichiometry N” value in the assay with PEX14 NTD (1-104) [1] came to 1 sites.

For the molecule B6, in the assay with PEX14 NTD (1-104) [2], the Kd is 0.0205 µM and the “stoichiometry N” value is 1.

For B7, the binding result with PEX5 W4 peptide [5] is “binds”.

In the case of B8, in the assay with PEX14 NTD (1-104) [2], the Kd amounted to 0.0723 µM and the “stoichiometry N” value was 1.

For B9, the “stoichiometry N” value in the assay with PEX14 NTD (1-104) [2] stood at 1.

In the assay with PEX5 W3 peptide [6], B10 had a Kd of 102 µM.

On to B11, for which the Kd with PEX5 W2 peptide [7] is 88.8 µM and 86.8 µM and 88.6 µM; with PEX5 W4 peptide [8], 44.9 µM and 48.5 µM and 36.9 µM; with PEX5 W3 peptide [9], 112 µM and 92.3 µM.

For B12, in the assay with PEX14 NTD (1-104) [1], the Kd was 0.0751 µM and 0.0626 µM and 0.0791 µM and 0.0723 µM; the “stoichiometry N” value stood at 1 sites.

On to B13, for which, in assay [10], binding was characterised by a dissociation constant (Kd) of 26.9 µM and the “stoichiometry N” value turned out to be 1.

As for B14, in assay [10], binding was characterised by a dissociation constant (Kd) of 6.4 µM and the “stoichiometry N” value was 1.

Turning to B15, the results for the Kd in the assay with PEX5 W3 peptide [11], with PEX5 W4 peptide [12] and with PEX5 W2 peptide [13] were 0.137 µM, 3.14 µM and 0.0736 µM, respectively.

For the molecule B16, the affinity in the assay with PEX5 W4 peptide [14], expressed as Kd, was 3.14 µM.
